Consider 7 substances from article PMC11364227.

For the assay, the target named is SARS-CoV-2 prototype-Beta RBD-dimer PB (two truncated RBDs, 329-537, in tandem) (SARS-CoV-2 (prototype) | SARS-CoV-2 (Beta variant)) (UniProt P0DTC2). Nature of the assay: SPR. On the technique in general: Surface plasmon resonance follows binding to a sensor surface in real time, without labels.
For C022, the Kd (usually the equilibrium constant for the complex coming apart) is 5.1 nM.
Then CR3022, with 293 nM; and S2H97, with 1.6 nM.
Turning to S2K146, the equilibrium dissociation constant (Kd) is 4 nM.
Substance S309 showed a Kd of 7.6 nM.
Then SA55, with 6.6 nM.
With XGv347 the figure was 0.2 nM.
